The source of these data is paper PMC5294778.

This assay concerns the target FBXW7 (UniProt Q8VBV4). The experiment in a line: anti-FLAG co-IP, MCL1-HA blot. Conditions: reference: WT MCL1-HA; sites S140.

As to “MCL1 (from UniProt P97287) MCL1-HA S140A”, the “binding against the reference” value is listed as “weaker”.
